Data: patent US20260125484A1 (GMAX BIOPHARM, published 2026)

T1: human endothelin receptor A (hETAR) (human, UniProt P25101 21-427)
T1 construct: GenBank AAB20278; co-expressed with Aequorin in the calcium flux assay; also called human ETAR; CHO-DHFR-hETAR
T1 sequence: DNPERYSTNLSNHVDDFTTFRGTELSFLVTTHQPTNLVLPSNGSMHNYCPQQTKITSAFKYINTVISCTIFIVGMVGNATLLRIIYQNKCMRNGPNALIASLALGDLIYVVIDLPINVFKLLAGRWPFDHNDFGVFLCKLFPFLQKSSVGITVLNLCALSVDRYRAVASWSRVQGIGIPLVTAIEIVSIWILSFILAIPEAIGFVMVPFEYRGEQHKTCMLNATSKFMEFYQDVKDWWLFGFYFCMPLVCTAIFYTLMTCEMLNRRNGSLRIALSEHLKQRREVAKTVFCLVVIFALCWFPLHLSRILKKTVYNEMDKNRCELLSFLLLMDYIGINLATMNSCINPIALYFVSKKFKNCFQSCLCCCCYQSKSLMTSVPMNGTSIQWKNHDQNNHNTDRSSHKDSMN


Tests used:
[1] = target: T1, human endothelin receptor A (hETAR); assay: FACS on CHO-DHFR-ETAR cells
Method: 10⁵ CHO-DHFR-hETAR cells were digested and collected with PBS containing 10 mM EDTA, separately added into 1.5 mL EP tubes, the supernatant was discarded after centrifugation, and the negative control sample was resuspended in a flow loading buffer (PBS, 2% FBS). Positive treatment group cells in each tube were added with 200 μL of the antibody supernatant, and incubated at room temperature; after the completion of the incubation, the cells were centrifuged at 1500 rpm, the supernatant was discarded, the cell precipitate was washed once with a flow loading buffer, and centrifuged again, and the cells were resuspended; 1:50 diluted FITC labeled goat anti-mouse fluorescent secondary antibody (BD Pharmingen) was added to the cell resuspension solution at 200 μL/well, and the cells were incubated at room temperature for 30 min in the dark; and the cells were centrifuged, the supernatant was discarded, the cell was washed once with a flow loading buffer, and centrifuged, the cell precipitate was resuspended with a flow loading buffer for on-machine detection. The supernatant expressing recombinant anti-ETAR functional antibody was specifically bound to CHO-DHFR-ETAR cells expressing ETAR. The gray peaks and dotted line peaks were negative controls; and the solid line peak corresponding to the hybridoma cell supernatant shifted obviously to the right.

[2] = target: T1, human endothelin receptor A (hETAR); assay: cell-based or functional assay

Binder	binding result [1]	IC50, calcium flux inhibition curve [2] [nM]
ETAR antibody A-2 (antibody, mouse IgG1, V domains shown, also called L2H2) VH: QIQLVQSGAELAKPGASVRMSCETSGYTFTSYWIHWIKERPGQGLEWIGYINPDTDYSEYNQKFKDKARLTADKSSTTAYMELNSLTFDDSAVYYCASAGYYFFDFWGQGTTLTVSS VL: DIQMTQSPASLSTSVGETVTITCRASENIYSYLAWYQQRQGKSPHLLVNNAKTLAEGVPSRFSGSGSGTHFSLRISGLQPEDFGSYYCQHHYGIPFTFGGGTKLSIKR	binds	
ETAR antibody A-12 (antibody, mouse IgG1, V domains shown, also called L12H12) VH: EVKLVESGGRLVQPGNSLRLSCATSGFTFSDYYMSWVRQTPGRALEWLSFIRNRANGYTTEYSASVKGRFTISRDNSQSILYLHMSTLRPEDSATYYCVRDSYHYGYFDVWGAGTTVTVSS VL: EIQMTQTPSSLSASLGDRVTITCSASQGINNYLNWYQQKPGGKTRLLIYYTSTLQSGVPSRFSGSGSGTHYSLTISNLEPEDIATYYCQQFSKLRTFGGGTRLEIKR	binds	
ETAR antibody A-9 (antibody, mouse IgG1, V domains shown) VH: EVQLQQPGGGLVQPGGSLTLSCATSGFTFSSYGMSWVRQTPAKRLELVATISTNGATANYPDSVKGRFTISRDNAKSTLYLQMRSLKSEDTAMYYCATEKGAMGYWGQGTSVTVSS VL: DVLMTQTPLSLPVSLGDQASISCRSSQNIVHSTGNTYLEWYLQKPGQSPKLLIYKVSNRFSGVPNRFRGSGSGTDFTLKITRVEAEDLGIYYCFQGSHFPFTFGSGTKLEIKR		88
ETAR antibody A-7 (antibody, mouse IgG1, V domains shown, also called L7H7) VH: EVHLVESGGGLVQPGGSLKLSCAASGFTFSTYGMSWVRQTPDKRLELVATINTNGGTTYYRDSVKGRFTISRDNAKNTLYLQMSSLKSDDTAMYYCARDYGAMDYWGQGTSVTVSS VL: DVLMTQTPLSLPVSLGDHASISCRSSQYIVHSTGTTYLEWYLQKPGQSPQLLIYKVSNRFSGVPDRFTGSGSGTDFTLRISRVEAEDLGVYFCFQGSHFPFTFGSGTKLEIKR	binds	
